Source: paper PMC10847457 (Cell Discovery, 2024)

Columns and labels:
[1] = target: T1, SARS-CoV-2 NTD (aa 1-305) (SARS-CoV-2, UniProt P0DTC2); test: ELISA; conditions: both partners purified
T1 construct: source: Expi293 cells, transient transfection (pCMV3), purified

[2] = target: T2, SARS-CoV-2 RBD (aa 319-541) (SARS-CoV-2, UniProt P0DTC2); test: ELISA; conditions: both partners purified
T2 construct: source: Expi293 cells, transient transfection (pCMV3), purified

Binder | binding result [1] | binding result [2]
PW5-570 (antibody, V domains shown, also called PW5-570 IgG; PW5-570 immunoglobulin G) VH: QMQLVQSGPEVRKPGTSVKVSCRASVFSFDTSAVQWVRQARGQPLEWIGWIVFGSSNTDYAQKFRDRVTITGDMSTGTAYMELSSLRSEDTAVYYCAAPHCNRTNCHDGFDIWGQGTVVTVSS VL: EIVLTQSPGTLSLSPGERATLSCRASQSVRSGYLGWYQQKPGQAPRLLIYGAYNRATGIPDRFRGSGSGTDFTLTISRLEPEDFVVYYCQQYDRSPWTFGQGTKVEIK | no binding | binds
PW5-5 (antibody, V domains shown, also called PW5-5 IgG; IgG PW5-5) VH: QVQLVQSGAEVKKPGASVKVSCKTSGYTFTDHYMYWVRQAPGQGLEWMGVINPDAGSVTYAQKFQGRVTMTSDTSTSTVYMELSSLRSEDTAVYYCARDLFFIPAANSFDYWGQGTLVTVSS VL: EIVLTQSPATLSLSPGERATLSCRASQSVSSYLAWYQQKPGQAPRLLIYDATNRATGIPARFSGSGSGTDFTLTISSLEPEDFAVYYCQHRSNWPRMFTFGQGTKLEIK | no binding | binds
PW5-535 (antibody, V domains shown) VH: EVRLVESGGGLVQPGGSLRLSCAASGFTFRNYDIHWVRQTTGKGLEWVSAVGTSGDTYYLDSVKGRFTISREDAKKSVYLQMNSLRAGDTAMYYCVRGDASPDNIYYYMDVWGTGTRVIVSS VL: DIQVTQSPSPLSASVGDRVTITCRASQTIGKYLNWYHQIPGKAPKLLISAASTLHSGVPSRFSGRGSGTDFTLTISSLQPEDFGTYYCQQSYSSPPWTFGQGTKVEIK | no binding | binds
